Test results taken from the supplement of paper PMC10567573.

B1: RAD51 (parent)
chain: RFLRMLLRLADEFGVAVVITNQVV
B2: BCL2L13 (parent)
chain: QSLDQEILLKVKTEIEEELKSLDK

Variants of: B1
Experiment: protein stability index of a GFP-peptide fusion (GPS, HEK-293T) (PSI 1-6); higher = more stable
Settings: c terminus: a fixed tail appended
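Note: lentivirally expressed fusions sorted by FACS into six bins by GFP to DsRed ratio, PSI derived from sequencing read proportions per bin multiplied by bin number.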

Question: For Q22N, which protein stability index is on record?
Answer: 1.85

Question: Which protein stability index does the source give for Q22V here?
Answer: 2.24

Question: For Q22D, which protein stability index is on record?
Answer: 1.65

Question: Which protein stability index does the source give for Q22H here?
Answer: 1.9

Question: For Q22L, which protein stability index is on record?
Answer: 1.68

Question: Which protein stability index does the source give for Q22E here?
Answer: 3.17

Question: With Q22K as the variant, how does the protein stability index read?
Answer: 1.39

Question: For Q22G, which protein stability index is on record?
Answer: 2.92

Question: Which protein stability index does the source give for Q22T here?
Answer: 1.44

Question: Which protein stability index does the source give for Q22R here?
Answer: 2.08

Question: For Q22P, which protein stability index is on record?
Answer: 1.99

Question: Which protein stability index does the source give for Q22A here?
Answer: 1.52

Question: Which protein stability index does the source give for Q22F here?
Answer: 1.29

Question: With Q22S as the variant, how does the protein stability index read?
Answer: 2.47

Question: Which protein stability index does the source give for Q22M here?
Answer: 1.65

Question: With Q22Y as the variant, how does the protein stability index read?
Answer: 2.77

Question: Which protein stability index does the source give for Q22C here?
Answer: 2.3

Question: Which protein stability index does the source give for Q22I here?
Answer: 1.43

Question: With V23K as the variant, how does the protein stability index read?
Answer: 2.73

Question: With V23L as the variant, how does the protein stability index read?
Answer: 2.38

Question: With V23W as the variant, how does the protein stability index read?
Answer: 1.98

Question: With V23I as the variant, how does the protein stability index read?
Answer: 3.7

Question: With V23F as the variant, how does the protein stability index read?
Answer: 3.02

Question: Which protein stability index does the source give for V23C here?
Answer: 2.69

Question: With V23N as the variant, how does the protein stability index read?
Answer: 1.9

Question: With V23S as the variant, how does the protein stability index read?
Answer: 2.56

Question: With V23R as the variant, how does the protein stability index read?
Answer: 1.09

Question: Which protein stability index does the source give for V23H here?
Answer: 2.07

Question: For V23M, which protein stability index is on record?
Answer: 2.37

Question: For V23T, which protein stability index is on record?
Answer: 1.51

Question: Which protein stability index does the source give for V23A here?
Answer: 2.66

Question: For V23E, which protein stability index is on record?
Answer: 1.9

Question: Which protein stability index does the source give for V23Y here?
Answer: 1.5

Question: Which protein stability index does the source give for V23D here?
Answer: 2.64

Question: Which protein stability index does the source give for V23Q here?
Answer: 1.98

Question: Which protein stability index does the source give for V23P here?
Answer: 2.23

Question: With N21W as the variant, how does the protein stability index read?
Answer: 1.76

Question: For N21S, which protein stability index is on record?
Answer: 1.19

Question: For N21M, which protein stability index is on record?
Answer: 4.31

Question: Which protein stability index does the source give for N21P here?
Answer: 1.7

Question: Which protein stability index does the source give for N21T here?
Answer: 2.02

Question: For N21V, which protein stability index is on record?
Answer: 2.43

Question: Which protein stability index does the source give for N21L here?
Answer: 1.97

Question: With N21K as the variant, how does the protein stability index read?
Answer: 2.3

Question: Which protein stability index does the source give for N21R here?
Answer: 1.68

Question: For N21Y, which protein stability index is on record?
Answer: 2.19

Question: Which protein stability index does the source give for N21Q here?
Answer: 1.9

Question: For N21I, which protein stability index is on record?
Answer: 1.43

Question: For V24P, which protein stability index is on record?
Answer: 2.06

Question: Which protein stability index does the source give for V24F here?
Answer: 2.68

Question: For V24N, which protein stability index is on record?
Answer: 1.86

Question: Which protein stability index does the source give for V24H here?
Answer: 3.01

Question: With V24G as the variant, how does the protein stability index read?
Answer: 2.11

Question: For V24M, which protein stability index is on record?
Answer: 2.4

Question: With V24D as the variant, how does the protein stability index read?
Answer: 2.48

Question: Which protein stability index does the source give for V24R here?
Answer: 2.55

Question: For V24L, which protein stability index is on record?
Answer: 2.03

Question: For V24I, which protein stability index is on record?
Answer: 3.73

Question: With V24Y as the variant, how does the protein stability index read?
Answer: 1.6

Question: Which protein stability index does the source give for V24K here?
Answer: 1.45

Question: With V24S as the variant, how does the protein stability index read?
Answer: 1.44

Question: For V24C, which protein stability index is on record?
Answer: 2.11

Question: For V24T, which protein stability index is on record?
Answer: 1.83

Question: Which protein stability index does the source give for V24Q here?
Answer: 2.83

Question: Which protein stability index does the source give for V24A here?
Answer: 1.89

Question: Which protein stability index does the source give for V24E here?
Answer: 1.41

Question: For V24W, which protein stability index is on record?
Answer: 1.25

Variants of: B2
Experiment: as above
Settings: c terminus: a fixed tail appended

Question: For I15M, which protein stability index is on record?
Answer: 5.08

Question: With I15C as the variant, how does the protein stability index read?
Answer: 5.12

Question: For I15V, which protein stability index is on record?
Answer: 5.08

Question: Which protein stability index does the source give for I15Q here?
Answer: 5.46

Question: With I15D as the variant, how does the protein stability index read?
Answer: 5.89

Question: Which protein stability index does the source give for I15K here?
Answer: 5.41

Question: For I15T, which protein stability index is on record?
Answer: 5.76

Question: Which protein stability index does the source give for I15N here?
Answer: 5.58

Question: With I15G as the variant, how does the protein stability index read?
Answer: 5.61

Question: With I15F as the variant, how does the protein stability index read?
Answer: 5.36

Question: For I15Y, which protein stability index is on record?
Answer: 4.88

Question: For I15W, which protein stability index is on record?
Answer: 4.45

Question: With I15L as the variant, how does the protein stability index read?
Answer: 4.85

Question: With I15P as the variant, how does the protein stability index read?
Answer: 5.92

Question: Which protein stability index does the source give for I15H here?
Answer: 5.29

Question: For I15E, which protein stability index is on record?
Answer: 5.8

Question: For L3A, which protein stability index is on record?
Answer: 5.71

Question: With L3T as the variant, how does the protein stability index read?
Answer: 4.99

Question: For L3V, which protein stability index is on record?
Answer: 5.31

Question: With L3G as the variant, how does the protein stability index read?
Answer: 5.16

Question: Which protein stability index does the source give for L3M here?
Answer: 5.47

Question: For L3H, which protein stability index is on record?
Answer: 5.54

Question: With L3C as the variant, how does the protein stability index read?
Answer: 4.97

Question: With L3I as the variant, how does the protein stability index read?
Answer: 4.72

Question: For L3F, which protein stability index is on record?
Answer: 4.87

Question: With S21T as the variant, how does the protein stability index read?
Answer: 4.59

Question: With S21W as the variant, how does the protein stability index read?
Answer: 3.57

Question: For S21D, which protein stability index is on record?
Answer: 5.47

Question: With S21V as the variant, how does the protein stability index read?
Answer: 4.73

Question: For S21M, which protein stability index is on record?
Answer: 4.67

Question: Which protein stability index does the source give for S21R here?
Answer: 4.42

Question: With S21Q as the variant, how does the protein stability index read?
Answer: 4.86

Question: With S21F as the variant, how does the protein stability index read?
Answer: 4.72

Question: With S21G as the variant, how does the protein stability index read?
Answer: 5.35

Question: Which protein stability index does the source give for S21N here?
Answer: 5.38

Question: Which protein stability index does the source give for L19C here?
Answer: 5.02

Question: With L19T as the variant, how does the protein stability index read?
Answer: 5.48

Question: For L19H, which protein stability index is on record?
Answer: 4.97

Question: For L19S, which protein stability index is on record?
Answer: 5

Question: Which protein stability index does the source give for L19E here?
Answer: 5.71

Question: Which protein stability index does the source give for L19N here?
Answer: 5

Question: With L19F as the variant, how does the protein stability index read?
Answer: 4.76

Question: Which protein stability index does the source give for L19W here?
Answer: 4.46

Question: Which protein stability index does the source give for L19D here?
Answer: 5.77

Question: For L19V, which protein stability index is on record?
Answer: 5.63

Question: With L19Y as the variant, how does the protein stability index read?
Answer: 5.05

Question: With L19G as the variant, how does the protein stability index read?
Answer: 5.03

Question: Which protein stability index does the source give for L19K here?
Answer: 5.19

Question: For L19I, which protein stability index is on record?
Answer: 4.65

Question: With Q5S as the variant, how does the protein stability index read?
Answer: 4.51

Question: For Q5H, which protein stability index is on record?
Answer: 3.64

Question: With Q5M as the variant, how does the protein stability index read?
Answer: 4.05

Question: Which protein stability index does the source give for Q5Y here?
Answer: 3.38

Question: Which protein stability index does the source give for Q5C here?
Answer: 4.67

Question: With Q5P as the variant, how does the protein stability index read?
Answer: 4.4

Question: Which protein stability index does the source give for Q5E here?
Answer: 4.8

Question: Which protein stability index does the source give for Q5V here?
Answer: 3.62

Question: Which protein stability index does the source give for Q5F here?
Answer: 2.83

Question: With Q5I as the variant, how does the protein stability index read?
Answer: 2.95

Question: Which protein stability index does the source give for Q5R here?
Answer: 4.14

Question: Which protein stability index does the source give for Q5K here?
Answer: 4.7

Question: Which protein stability index does the source give for E16A here?
Answer: 4.6

Question: Which protein stability index does the source give for E16G here?
Answer: 5.21

Question: For E16R, which protein stability index is on record?
Answer: 4.79

Question: Which protein stability index does the source give for E16F here?
Answer: 3.53

Question: For E16Y, which protein stability index is on record?
Answer: 3.87

Question: For E16N, which protein stability index is on record?
Answer: 5.02

Question: Which protein stability index does the source give for E16M here?
Answer: 3.09

Question: Which protein stability index does the source give for E16P here?
Answer: 4.69

Question: For E16D, which protein stability index is on record?
Answer: 5.17

Question: For K20W, which protein stability index is on record?
Answer: 4.91

Question: With K20Y as the variant, how does the protein stability index read?
Answer: 4.3

Question: With K20A as the variant, how does the protein stability index read?
Answer: 5.08

Question: Which protein stability index does the source give for K20Q here?
Answer: 4.63

Question: With K20V as the variant, how does the protein stability index read?
Answer: 5.11

Question: For K20M, which protein stability index is on record?
Answer: 4.48

Question: For K20T, which protein stability index is on record?
Answer: 5.09

Question: Which protein stability index does the source give for K20D here?
Answer: 4.86

Question: For K20R, which protein stability index is on record?
Answer: 5.18

Question: For K20P, which protein stability index is on record?
Answer: 5.35

Question: For K10I, which protein stability index is on record?
Answer: 3.21

Question: With K10D as the variant, how does the protein stability index read?
Answer: 5.67

Question: Which protein stability index does the source give for K10G here?
Answer: 4.83

Question: For K10T, which protein stability index is on record?
Answer: 4.84

Question: For K10W, which protein stability index is on record?
Answer: 3.15

Question: With K10L as the variant, how does the protein stability index read?
Answer: 3.19

Question: For K10V, which protein stability index is on record?
Answer: 3.53

Question: For K10Q, which protein stability index is on record?
Answer: 5.35

Question: For K10H, which protein stability index is on record?
Answer: 4.66

Question: With K10N as the variant, how does the protein stability index read?
Answer: 5.21

Question: With D4E as the variant, how does the protein stability index read?
Answer: 4.58

Question: For D4N, which protein stability index is on record?
Answer: 4.52

Question: With D4Q as the variant, how does the protein stability index read?
Answer: 4.66

Question: With D4L as the variant, how does the protein stability index read?
Answer: 2.79

Question: With D4A as the variant, how does the protein stability index read?
Answer: 4.27

Question: With D4V as the variant, how does the protein stability index read?
Answer: 2.66

Question: For D4S, which protein stability index is on record?
Answer: 4.42

Question: For D4K, which protein stability index is on record?
Answer: 4.55

Question: With D4I as the variant, how does the protein stability index read?
Answer: 2.28

Question: For D4W, which protein stability index is on record?
Answer: 2
